This is an account of results in patent US20240279344A1 (CDR LIFE, published 2024).

The chains are these.
B1: M1300 (bispecific antibody, V domains shown)
VH: EVQLLESGGGSVQPGGSLRLSCTVSGFSLSNYAMSWVRQAPGKGLEWIGIVSSGGTTYYASWAKGRFTISKDTSKNTVYLQMNSLRAEDTASYYCAKDLYYGPTTYSAANLWGQGTSVTVSS
VL: SYELTQPPSVSVSPGQTASITCTADTLSRSYASWYQQKPGQSPVLVIYRDTSRPSGIPERFSGSNSGNTATLTISGTQAMDEADYYCATRLFSGSNFQLFGGGTKLTVL
notes: Variant of humanized M0763; tested in SPR as anti-CD3 Fab x anti-MAGE-A4 scFv bispecific
B2: M1310 (bispecific antibody, V domains shown)
VH: EVQLLESGGGSVQPGGSLRLSCTVSGFSLSNYAMSWVRQAPGKGLEWIGIVSSGGTTYYASWAKGRFTISKDTSKNTVYLQMNSLRAEDTASYYCAKDLYYGPNTDYSAANLWGQGTSVTVSS
VL: SYELTQPPSVSVSPGQTASITCTADTLSRSYASWYQQKPGQSPVLVIYRDTSRPSGIPERFSGSNSGNTATLTISGTQAMDEADYYCATRPSSGSNFQAFGGGTKLTVL
notes: as for B1
B3: M1309 (bispecific antibody, V domains shown)
VH: EVQLLESGGGSVQPGGSLRLSCTVSGFSLSNYAMSWVRQAPGKGLEWIGIVSSGGTTYYASWAKGRFTISKDTSKNTVYLQMNSLRAEDTASYYCAKDLYYGPSTYFVANLWGQGTSVTVSS
VL: SYELTQPPSVSVSPGQTASITCTADTLSRSYASWYQQKPGQSPVLVIYRDTSRPSGIPERFSGSNSGNTATLTISGTQAMDEADYYCATRPSSGSNFQAFGGGTKLTVL
notes: as for B1
B4: M1302 (bispecific antibody, V domains shown)
VH: EVQLLESGGGSVQPGGSLRLSCTVSGFSLSNYAMSWVRQAPGKGLEWIGIVSSGGTTYYASWAKGRFTISKDTSKNTVYLQMNSLRAEDTASYYCAKDLYYGPNTDYSAANLWGQGTSVTVSS
VL: SYELTQPPSVSVSPGQTASITCTADTLSRSYASWYQQKPGQSPVLVIYRDTSRPSGIPERFSGSNSGNTATLTISGTQAMDEADYYCATRPSSGSNFQLFGGGTKLTVL
notes: as for B1
B5: M1301 (bispecific antibody, V domains shown)
VH: EVQLLESGGGSVQPGGSLRLSCTVSGFSLSNYAMSWVRQAPGKGLEWIGIVSSGGTTYYASWAKGRFTISKDTSKNTVYLQMNSLRAEDTASYYCAKDLYYGPTTYSAANLWGQGTSVTVSS
VL: SYELTQPPSVSVSPGQTASITCTADTLSRSYASWYQQKPGQSPVLVIYRDTSRPSGIPERFSGSNSGNTATLTISGTQAMDEADYYCATRDFSGSNFQLFGGGTKLTVL
notes: as for B1
B6: M0854 scFv (scFv)
scFv: QSVKESWGRLVTPGGSLTLTCTVSGIDLNNYAMGWVRQAPGKGLEWIGTINNDGATYYPSWARGRFTISKTSTTVDLKITSPTTEDTATYFCARTYGSNGDVYWGYFNLWGQGTLVTVSSGGGGSGGGGSGGGGSGGGGASALELTQTPASVEVAVGGTVTINCQASQSIGGALNWYQQKSGQPPKLLIYLASTLASGVSSRFKGSGSGTQFTLTISGVEAADAATYYCQQGYSASNIDNAFGGGTEVVVK
notes: Rabbit scFv identified by phage display
B7: M0849 scFv (scFv)
scFv: QEQLEESGGGLVTPGGTLTLTCTVSGFSLSNYAMGWVRQAPGKGLEWIGTINDGGTAFYAKWLKGRFTISRTSTTVDLKITSPTTEDTATYFCARAYGSNGDVYWGYFNLWGQGTLVTISSGGGGSGGGGSGGGGSGGGGASELVMTQTPSSVSEPVGGTVTIKCQASQSIGSNLAWYQQRPGQPPKLLIYSASTLASGVSSRFKGSGSGTESTLTISGVQAADAATYYCQQGYSSSNVDNVFGGGTELEIL
notes: as for B6
B8: M0852 scFv (scFv)
scFv: QQQLEESGGGLVTPGTPLTLTCTVSGFSLSNYAMGWVRQAPGKGLEWIGTINDGGTAFYANWLKGRFTISRTSTTVDLKITSPTTEDTATYFCARAYGSNGDVYWGYFNLWGQGTLVTVSSGGGGSGGGGSGGGGSGGGGASELVMTQTASPVSAAVGGTVTINCQASQSISSRSLSWYQQKPGQPPKLLIYEASKLASGVPSRFSGSGSGTQFTLTISGVQADDAATYYCQQGYSSSNVDNVFGGGTEVVVK
notes: as for B6
B9: M0848 scFv (scFv)
scFv: QEQLVESGGGLVTPGTPLTLTCTVSGFSLSSYAMGWVRQAPGKGLEWIGTINDGGTAFYASWVKGRFTISRTSTTVDLRVTSPTTEDTATYFCARAYGSNGDVYWGYFNLWGQGTLVTVSSGGGGSGGGGSGGGGSGGGGASELDLTQTPASVEVAVGGTVTIKCQASQSIGSYLSWYQQKPGQRPKLLIFRASTLASGVSSRFKGSGSGTQFTLTISGVECADAATYYCQQGYSSTNLDNVFGGGTEVVVK
notes: as for B6
B10: M0855 scFv (scFv)
scFv: QQQLEESGGGLVTPGTPLTLTCTVSGIDLSSYAMGWVRQAPGKGLEWIGTINDGGSAFYASWVKGRFTISRTSTTVDLKITSPTAEDTATYFCAKTYGTNGDVYWGYFNLWGQGTLVTISSGGGGSGGGGSGGGGSGGGGASELVMTQTPASVSEPVGGTVTIKCQASQSIGSNLAWYQQKPGQPPKLLIYYESILASGVPSRFSGSGSGTEYTLTISGAQADDAATYYCQQGYSSSNIDNAFGGGTEVVVK
notes: as for B6
B11: M0856 scFv (scFv)
scFv: QQQLEESGGGLVTPGTPLTLTCTVSGIDLSSYAMGWVRQAPGKGLEWIGTINDGGSAFYASWVKGRFTISRTSTTVDLKITSPTAEDTATYFCAKTYGTNGDVYWGYFNLWGQGTLVTISSGGGGSGGGGSGGGGSGGGGASELVMTQTPASVSEPVGGTVTIKCQASQSIGSNLAWYQQKPGQPPKLLIYYESILASGVPSRFSGSGSGTEYTLTISGAQADDAATYYCQQGYSSSNILNAFGGGTEVVVK
notes: as for B6
B12: M0853 scFv (scFv)
scFv: QQQLVESGGGLVTPGTPLTLTCTVSGFSLSNYAMGWVRQAPGKGLEWIGTINDGGTAFYANWLKGRFTISRTSTTVDLKITSPTTEDTATYFCARAYGSNGDVYWGYFNLWGQGTLVTVSSGGGGSGGGGSGGGGSGGGGASELVMTQTASPVSAAVGGTVTINCQASQSISSRSLSWYQQKPGQPPKLLIYEASKLASGVPSRFSGSGSGTQFTLTISGVQADDAATYYCQQGYSSSNVDNFGGGTEVVVK
notes: as for B6
B13: M0859 scFv (scFv)
scFv: QSVKESGGRLVTPGTPLTLTCTVSGFSLSNYAMSWVRQAPGKGLEYIGIVSSGGTTYYASWAKGRFTISKTSTTVDLKITSPTTEDTATYFCAKDLYYGPTTYSAFNLWGQGTLVTISSGGGGSGGGGSGGGGSGGGGASELVLTQPQSVSGSLGQTVSISCKRARDNIEDYYVHWYQQHPGKTPTIVIHKDDQRPSGVPDRFSGSIDSTSNSASLTITGLLAEDEADYFCQSFDNDASPVFGGGTQLTVTG
notes: as for B6
B14: M0858 scFv (scFv)
scFv: QSVEESGGRLVTPGTPLTLTCTVSGFSLSNYAMSWVRQAPGKGLEYIGIVSSGGTTYYASWAKGRFTISKTSTTVDLKITSPTTEDTATYFCAKDLYYGPTTYSAFNLWGQGTLVTVSSGGGGSGGGGSGGGGSGGGGASELVLTQPQSVSGSLGQTVSISCKRARNNIEDYYVHWYQQHPGRSPTIVIHKDDQRPSGVPDRFSGSIDSTSNSASLTITGLLAEDEADYFCQSFDNNANPVFGGGTQLTVTG
notes: as for B6
B15: M0860 scFv (scFv)
scFv: QSVKESGGRLVTPGTPLTLTCTVSGFSLSNYAMSWVRQAPGKGLEYIGIVSSGGTTYYASWAKGRFTISKTSTTVDLKITSPTTEDTATYFCAKDLYYGPTTYSAFNLWGQGTLVTISSGGGGSGGGGSGGGGSGGGGASELVLTQPQSVSGSLGQTVSISCKRARDNIEDYYVHWYQQYPGKTPTIVIYKDDQRPSGVPDRFSGSIDSTSNSASLTITGLLAEDEADYFCQSFDNNANVVFGGGTQLTVTG
notes: as for B6
B16: M0850 scFv (scFv)
scFv: QEQLEESGGGLVTPGTPLTLTCTASGFSLSSYAMIWVRQAPGKGLEWIGTINDGGTAFYANWVKGRFTISRTSTTVDLKMTSPTTEDTATYFCARAYGSNGDVYWGYVNLWGQGTLVTVSSGGGGSGGGGSGGGGSGGGGASELVMTQTPASVSEPVGGTVTIKCQASQSIGSNLAWYQQKPGQPPKLLIYAAANLASGVSSRFKGSRSGTEYTLTISGVQAADAATYYCQQGYSSSNVANVFGGGTELEIL
notes: as for B6
B17: M0851 scFv (scFv)
scFv: QEQLEESGGGLVTPGTPLTLTCTASGFSLSSYAMIWVRQAPGKGLEWIGTINDGGTAFYASWVKGRFTISRTSTTVDLKITSPTTEDTATYFCARAYGSNGDVYWGYVNLWGQGTLVTISSGGGGSGGGGSGGGGSGGGGASELVMTQTPSSVSAAVGGTVTINCQASQNIGSVFAWYQQKPGQPPKLLIYKASSLASGVPSRFKGSGSGTQFTLTISGVEAADAATYYCQQGASSSNVDNIFGGGTEVVVK
notes: as for B6
B18: M0861 scFv (scFv)
scFv: QSVKESGGRLVTPGTPLTLTCTVSGFSLSNYAMSWVRQAPGKGLEYIGIVSSGGTTYYASWAKGRFTISKTSTTVDLKITSPTTEDTATYFCAKDLYYGPTTYSAFNLWGQGTLVTISSGGGGSGGGGSGGGGSGGGGASELVLTQPASVQVNLGQTVSLTCTADTLSRSYASWYQLKPGQAPVLLIYRDTSRPSGVPDRFSGSSSGNTATLTISGAQAGDEGDYVCATSDGSGSNFQLFGGGTQLTVTG
notes: as for B6
B19: M0857 scFv (scFv)
scFv: QQQLVESGGRLVTPGTPLTLTCTASGIDLNSNAMSWVRQGPGKGLEWIGDIWSGGYTDYASWAKGRFTISKTSTTVDLKMTSLTAADTATYFCARDRLAGDGVVDYDLWGQGTLVTISSGGGGSGGGGSGGGGSGGGGASELDMTQTPASVEVAVGGTVTIKCQASQNIYSNLAWYQQKPGQRPKLLIYGASTLASGVPSRFKGSGSGTEYTLTINGVQAADAATYYCQQGFSSSNVDNVFGGGTEVVVK
notes: as for B6

The first experiment addresses T1, HLA-A2/MAGE-A4 complex, recombinant (HLA-A*02:01 extracellular domain, human b2m, MAGE-A4 peptide 230-239 …) (human, UniProt P04439 25-299 at identity 0.94); P61769 21-119).
T1 construct: also called MAGE-A4 pMHC; MAGE-A4/HLA-A2 complex
The experiment in a line: SPR, monovalent.
In general, Kd refers to a measure of binding affinity in units of concentration. Turning to B1, the Kd was found to be 120 pM.

Turning to B2, the Kd amounted to 350 pM. On the same count and under the same terms, the figure for B3 is 90 pM; for B4 it is 600 pM; for B5 it is 120 pM.

For another experiment, the target named is T1, HLA-A2/MAGE-A4 complex, recombinant …. Nature of the experiment: phage display biopanning and screening.
For B6, the binding result is “binds”.

With B7, the binding result is listed as “binds”. Same read-out and setting: next, B8: “binds”; B9: “binds”. The same measure, in the same setting: next, B10: “binds”; B11: “binds”; B12: “binds”.

For the molecule B13, the binding result is recorded as “binds”.

Regarding B14, the binding result is recorded as “binds”. For the molecule B15, the binding result is “binds”. On to B16, for which the binding result is listed as “binds”. With B17, the binding result was “binds”. In the case of B18, the binding result is listed as “binds”. For the molecule B19, the binding result was “binds”.
